Experimental findings from US20140193915, “COMPOSITIONS AND METHODS FOR CUSTOM SITE-SPECIFIC DNA RECOMBINASES” (Monsanto Technology, LLC, published 2014) are described below.

What all share (assay): cell_activity; E. coli
Data set [1] deals with T1, pN-TALER IV-1-EE2 (GinL7C7-EE2-TALE13) (synthetic).
T1 chain: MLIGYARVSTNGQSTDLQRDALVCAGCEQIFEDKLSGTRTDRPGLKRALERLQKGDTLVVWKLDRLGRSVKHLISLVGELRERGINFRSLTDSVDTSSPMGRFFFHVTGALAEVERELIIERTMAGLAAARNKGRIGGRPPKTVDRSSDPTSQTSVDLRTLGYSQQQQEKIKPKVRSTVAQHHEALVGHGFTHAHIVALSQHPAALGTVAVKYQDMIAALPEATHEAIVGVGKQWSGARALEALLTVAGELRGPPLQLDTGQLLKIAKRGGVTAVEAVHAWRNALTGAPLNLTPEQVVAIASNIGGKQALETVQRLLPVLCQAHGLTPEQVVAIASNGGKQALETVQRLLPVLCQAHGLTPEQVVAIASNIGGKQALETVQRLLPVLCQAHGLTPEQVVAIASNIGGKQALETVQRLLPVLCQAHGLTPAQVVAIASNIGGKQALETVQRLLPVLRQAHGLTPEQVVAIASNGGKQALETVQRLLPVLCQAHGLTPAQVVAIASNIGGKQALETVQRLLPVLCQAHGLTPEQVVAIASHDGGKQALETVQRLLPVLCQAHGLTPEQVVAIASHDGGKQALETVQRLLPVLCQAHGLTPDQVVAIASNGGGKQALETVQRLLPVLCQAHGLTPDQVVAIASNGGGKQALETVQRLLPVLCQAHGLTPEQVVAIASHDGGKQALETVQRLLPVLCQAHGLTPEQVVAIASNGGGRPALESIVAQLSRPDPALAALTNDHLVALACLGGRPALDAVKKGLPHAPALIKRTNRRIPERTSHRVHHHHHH
The following applies: tags: 6-His. The source says:
(§1) To determine how much of the Gin20 sequence is required for recombination when the central sequence is maintained at a permitted length, N-TALER reporters were generated with a 20 bp recombinase central sequence between the TALE binding sites, where either the central 12 bp, or the central 10 bp, or the central 8 bp of the recombinase core sequence were held constant, and the remaining nucleotides were different from the Gin sequence. The N-TALER reporter with 12 bp was designated R45, the N-TALER reporter with 10 bp was designated R46, and the N-TALER reporter with 8 bp was designated R47. A N-TALER reporter with a 10 bp site 1 and a 12 bp site 2 was designated R46B, and a N-TALER reporter with a T and an A flanking the central AT di-nucleotide was designated R48 (see Table 33). The various reporters, including the pSC101 Gin20TALE13+0 were co-transformed with either sN-TALER-IV-1 or pN-TALER-IV-1 and recombination, as determined by colony color, was scored (Table 33). For purposes of comparison, the GinE site that was used in the generation of the GinL7C7-EE2 recombinase domain (Gersbach et al., 2010) was also included.
(§2) To confirm that white colonies resulted from recombination, the colonies were analyzed by colony PCR and sequencing of the PCR product. For the reporter that retained 12 bp from the Gin site, 8 of 8 colonies analyzed had the predicted recombination product for both the sN-TALER-IV-1 chimera and the pN-TALER-IV-1chimera (16 colonies total analyzed, 8 each). Likewise, for the reporter that retained 8 bp from the Gin site co-transformed with the pN-TALER-IV-1 chimera, 14 of 14 colonies analyzed had the predicted recombination product.

Data set [2] has as its target T2, sN-TALER IV-1 (GinH106Y-TALE13) (synthetic).
T2 chain: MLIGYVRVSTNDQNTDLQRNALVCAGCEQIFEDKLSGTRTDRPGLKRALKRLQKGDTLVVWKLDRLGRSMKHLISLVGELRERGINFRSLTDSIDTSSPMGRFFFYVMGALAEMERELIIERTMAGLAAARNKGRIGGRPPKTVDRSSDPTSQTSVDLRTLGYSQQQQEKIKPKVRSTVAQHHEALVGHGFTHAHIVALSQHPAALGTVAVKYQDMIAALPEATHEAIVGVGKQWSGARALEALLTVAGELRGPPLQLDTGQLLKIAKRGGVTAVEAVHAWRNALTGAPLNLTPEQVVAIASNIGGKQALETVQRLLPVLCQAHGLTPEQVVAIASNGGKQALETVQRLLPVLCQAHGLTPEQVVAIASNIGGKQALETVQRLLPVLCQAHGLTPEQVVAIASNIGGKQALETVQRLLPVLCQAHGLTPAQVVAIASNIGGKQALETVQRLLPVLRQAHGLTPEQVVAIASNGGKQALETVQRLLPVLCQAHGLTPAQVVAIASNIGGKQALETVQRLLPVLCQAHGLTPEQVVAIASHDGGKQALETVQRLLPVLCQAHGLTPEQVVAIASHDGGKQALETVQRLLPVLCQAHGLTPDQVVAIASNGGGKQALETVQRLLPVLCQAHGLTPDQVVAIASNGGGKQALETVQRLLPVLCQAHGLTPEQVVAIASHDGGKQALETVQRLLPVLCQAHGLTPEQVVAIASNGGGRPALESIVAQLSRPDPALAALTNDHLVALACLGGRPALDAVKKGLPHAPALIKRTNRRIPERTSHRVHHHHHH
As to conditions: tags: 6-His; chain copies: 2 per site, tetramer in synapsis (stated).
Text: as §1, §2

Data set [3] concerns the target T3, sN-TALER IV-2 (GinH106Y-TALE13) (synthetic).
T3 chain: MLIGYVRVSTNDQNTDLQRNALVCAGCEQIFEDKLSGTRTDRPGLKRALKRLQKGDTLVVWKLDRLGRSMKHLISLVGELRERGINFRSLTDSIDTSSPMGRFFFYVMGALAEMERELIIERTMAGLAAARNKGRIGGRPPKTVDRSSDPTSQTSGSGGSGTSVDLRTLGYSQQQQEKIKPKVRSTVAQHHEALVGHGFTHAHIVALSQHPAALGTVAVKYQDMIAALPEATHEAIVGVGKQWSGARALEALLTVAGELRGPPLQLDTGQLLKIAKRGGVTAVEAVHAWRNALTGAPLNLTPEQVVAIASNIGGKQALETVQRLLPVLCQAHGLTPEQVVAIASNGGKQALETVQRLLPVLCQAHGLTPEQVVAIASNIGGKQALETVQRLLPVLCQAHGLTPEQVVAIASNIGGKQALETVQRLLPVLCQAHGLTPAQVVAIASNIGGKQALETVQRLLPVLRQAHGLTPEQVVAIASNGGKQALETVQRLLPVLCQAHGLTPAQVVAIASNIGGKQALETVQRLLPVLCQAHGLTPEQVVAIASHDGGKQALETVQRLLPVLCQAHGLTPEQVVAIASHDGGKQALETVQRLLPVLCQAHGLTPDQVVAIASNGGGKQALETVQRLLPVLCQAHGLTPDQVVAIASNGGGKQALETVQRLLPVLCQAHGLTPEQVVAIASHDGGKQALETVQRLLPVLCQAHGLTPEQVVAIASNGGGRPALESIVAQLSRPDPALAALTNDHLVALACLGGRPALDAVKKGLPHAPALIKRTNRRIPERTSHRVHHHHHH
The following applies: tags: 6-His. As for the experimental part: (§3) To test for recombination, E. coli DH5alpha cells were co-transformed with different combinations of TALER expression construct and TALER reporter construct pairs (Tables 6 and 7). The N-TALER expression and reporter constructs were in an approximate 1:1 mass ratio during the transformation. The co-transformed bacteria were plated on media with chloramphenicol, kanamycin, and X-gal then incubated at 37° C. for 18 to 36 hours. Control samples consisted of transformations using the reporter construct alone. Control transformants were similarly plated. The bacterial transformation protocol was either heat shock or electroporation per standard molecular biology techniques.

Data set [4] concerns the target T2, sN-TALER IV-1 (GinH106Y-TALE13). As to conditions: tags: 6-His; chain copies: 2 per site, tetramer in synapsis (stated). As for the experimental part: as §3
The target in another data set is T4, sN-TALER IV-3 (synthetic).
T4 chain: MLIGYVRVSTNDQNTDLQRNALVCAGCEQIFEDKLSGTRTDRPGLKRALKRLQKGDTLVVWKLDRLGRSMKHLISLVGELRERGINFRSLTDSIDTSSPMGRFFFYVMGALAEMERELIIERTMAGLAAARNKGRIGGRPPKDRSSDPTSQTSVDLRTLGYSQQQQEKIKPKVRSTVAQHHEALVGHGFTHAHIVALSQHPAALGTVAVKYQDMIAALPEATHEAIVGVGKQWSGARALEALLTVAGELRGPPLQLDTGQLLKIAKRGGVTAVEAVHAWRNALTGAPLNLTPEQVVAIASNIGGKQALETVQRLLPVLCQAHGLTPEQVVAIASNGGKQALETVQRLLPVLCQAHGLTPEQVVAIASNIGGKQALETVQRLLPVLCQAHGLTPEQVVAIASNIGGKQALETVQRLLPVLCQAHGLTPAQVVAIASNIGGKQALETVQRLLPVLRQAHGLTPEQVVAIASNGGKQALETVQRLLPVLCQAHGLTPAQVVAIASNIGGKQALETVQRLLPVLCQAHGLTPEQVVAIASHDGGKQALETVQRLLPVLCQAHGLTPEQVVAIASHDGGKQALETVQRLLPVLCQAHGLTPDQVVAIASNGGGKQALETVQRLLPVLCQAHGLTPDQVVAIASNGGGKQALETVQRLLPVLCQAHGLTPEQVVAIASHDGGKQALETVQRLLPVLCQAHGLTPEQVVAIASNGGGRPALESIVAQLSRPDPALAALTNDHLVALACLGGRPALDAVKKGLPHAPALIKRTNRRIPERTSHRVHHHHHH
As to conditions: tags: 6-His. As for the experimental part:
as §3

The target in data set [5] is T1, pN-TALER IV-1-EE2 (GinL7C7-EE2-TALE13). As to conditions: tags: 6-His. As for the experimental part:
as §3
Two additional N-TALERs, based on N-TALER IV-1, were constructed wherein the GinH106Y recombinase catalytic domain was replaced with either the GinL7C7-EE2 catalytic domain or the GinL7C7-EE3 permissive recombinase catalytic domain. These N-TALERs were labeled pN-TALER IV-1-EE2 (SEQ ID NO:41) and pN-TALER IV-1-EE3 (SEQ ID NO:45), respectively. pN-TALER IV-1-EE2 was tested in combination with seventeen N-TALER reporter constructs and pN-TALER IV-1-EE3 was tested with three reporter constructs (Table 10).

B1: R45 (12bp) (dsDNA)
DNA 1: AGAAGGTATTTATATCTCAAACCATGGTTTCACTTATAAATACCTTCT
DNA 2: AGAAGGTATTTATAAGTGAAACCATGGTTTGAGATATAAATACCTTCT
Regarding B1, the activity was 1 score in data set [1] and 1.5 score in data set [2].

B2: R46 (10bp) (dsDNA)
DNA 1: AGAAGGTATTTATATCTCTAACCATGGTTACACTTATAAATACCTTCT
DNA 2: AGAAGGTATTTATAAGTGTAACCATGGTTAGAGATATAAATACCTTCT
Consider B2, for which the activity in data set [1] worked out at 1.5 score; in data set [2] it was 4.5 score.

B3: R48 (dsDNA)
DNA 1: AGAAGGTATTTATATCCAAAACTATAGTTTACAGTATAAATACCTTCT
DNA 2: AGAAGGTATTTATACTGTAAACTATAGTTTTGGATATAAATACCTTCT
Turning to B3, the activity in data set [1] amounted to 1.5 score; in data set [2], 4.5 score.

B4: Gin20TALE+12 (dsDNA)
DNA 1: AGAAGGTATTTATATAGGCACACTTATCCAAAACCATGGTTTACAGGACCACACGGTATATAAATACCTTCT
DNA 2: AGAAGGTATTTATATACCGTGTGGTCCTGTAAACCATGGTTTTGGATAAGTGTGCCTATATAAATACCTTCT
For B4, the activity stood at 1 score in data set [3], 2 score in data set [4], 1 score in the data set with sN-TALER IV-3 and 2 score in data set [5].
